Data on five molecules can be found in patent publication US20230416345A1 (NAVIGO PROTEINS, published 2023).

Test [1] concerns the target T1, 67B89 (domain of fibronectin) (UniProt P02751 1089-1540, limits assumed).
T1 construct: domain: EDB (67B89); Unrelated control protein; also called fibronectin domain EDB (67B89); extradomain B of fibronectin
In words: ELISA, 67B89 coated on the plate, A 450-600 nm. The method, then: (§1) High binding plates (Greiner, 781061) were immobilized with 2.5 μg/ml recombinant human collagen type II (h Col II, Chondrex, CHX-20051), rabbit collagen type II (rbCol II, prepared from rabbit eyes), porcine collagen type II (p Col II, prepared from porcine eyes), human collagen type I, (h Col I, Sigma, C5483-1MG), human collagen type V (h Col V, Abcam, ab7537), human collagen type III (h Col Ill, Abcam, ab7535) and 67B89 (domain of fibronectin, produced in E. coli) respectively over night at 4° C. ELISA-plates were washed 3 times with PBST (PBS+ 0.1% Tween) and blocked with 3% BSA/0.5% Tween/PBS 2 h at RT. […] Plates were washed with PBST and incubated with biotinylated anti-StrepTag-ab (Antikörper-online, ABIN1573895) with a dilution of 1:10.000 for 1 h at rt. The binding was visualized with a-rabbit-IgG-HRP (Sigma, A9169) with a dilution of 1:10.000 and as substrate TMB Plus von KEM EN TEC Diagnostic, Kat-Nr. 4395.
(§2) Results. ELISA analysis clearly confirms the specific binding to type II collagen. […] No unspecific binding to type I collagen, type III collagen, type V collagen or to a domain of fibronectin (67B89) was detected (FIG. 2).
(An ELISA detects its analyte on a solid surface through an enzyme-linked reagent.)

For test [2], the target named is T2, human collagen type I (human, UniProt P02452 162-1218; P08123 80-1119).
T2 construct: Bought; also called h Col I; type I collagen
Put plainly: ELISA, h Col I coated on the plate, A 450-600 nm. How it is done: as §1, §2

Test [3] concerns the target T3, human collagen type V (human, UniProt P20908 559-1570; P05997 216-1229).
T3 construct: Bought; also called h Col V; type V collagen
In words: ELISA, h Col V coated on the plate, A 450-600 nm. How it is done: as §1, §2

The target in test [4] is T4, human collagen type III (human, UniProt P02461 154-1221).
T4 construct: Bought; also called h Col III; type III collagen
T4 sequence (looked up): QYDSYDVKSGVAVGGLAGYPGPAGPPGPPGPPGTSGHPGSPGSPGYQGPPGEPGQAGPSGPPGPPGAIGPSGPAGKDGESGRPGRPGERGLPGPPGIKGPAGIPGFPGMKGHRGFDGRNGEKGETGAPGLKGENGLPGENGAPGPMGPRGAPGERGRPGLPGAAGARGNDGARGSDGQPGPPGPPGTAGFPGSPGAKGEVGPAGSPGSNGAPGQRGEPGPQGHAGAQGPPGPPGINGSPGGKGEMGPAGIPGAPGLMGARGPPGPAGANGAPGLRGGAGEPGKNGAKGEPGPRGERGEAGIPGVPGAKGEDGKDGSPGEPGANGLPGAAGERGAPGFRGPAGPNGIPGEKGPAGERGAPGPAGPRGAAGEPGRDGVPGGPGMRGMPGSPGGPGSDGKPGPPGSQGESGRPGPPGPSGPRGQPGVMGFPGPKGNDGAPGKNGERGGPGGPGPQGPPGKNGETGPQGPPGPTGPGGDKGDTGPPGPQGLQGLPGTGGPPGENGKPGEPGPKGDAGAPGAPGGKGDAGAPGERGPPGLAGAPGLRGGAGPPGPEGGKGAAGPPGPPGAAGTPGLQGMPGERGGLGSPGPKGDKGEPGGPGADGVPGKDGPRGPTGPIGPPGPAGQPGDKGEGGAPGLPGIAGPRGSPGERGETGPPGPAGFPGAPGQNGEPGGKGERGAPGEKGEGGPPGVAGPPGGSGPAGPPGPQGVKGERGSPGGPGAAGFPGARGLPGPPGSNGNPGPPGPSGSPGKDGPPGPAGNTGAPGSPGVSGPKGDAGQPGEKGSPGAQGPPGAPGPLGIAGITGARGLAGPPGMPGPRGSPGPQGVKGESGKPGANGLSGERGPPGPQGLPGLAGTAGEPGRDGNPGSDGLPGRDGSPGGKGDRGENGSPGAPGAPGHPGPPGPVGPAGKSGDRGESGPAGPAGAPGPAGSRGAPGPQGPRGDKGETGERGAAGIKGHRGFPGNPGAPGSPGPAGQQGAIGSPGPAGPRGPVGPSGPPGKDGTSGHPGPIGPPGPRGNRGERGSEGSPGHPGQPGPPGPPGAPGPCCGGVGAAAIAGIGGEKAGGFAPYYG
Put plainly: ELISA, h Col III coated on the plate, A 450-600 nm. How it is done:
as §1, §2

Test [5] has as its target T5, porcine collagen type II (porcine).
T5 construct: Prepared in house from pig eyes; also called p Col II; porcine type II collagen
Put plainly: ELISA, collagen coated on the plate, dilution series of the binder, detection via StrepTag, A 450-600 nm. The method, then:
as §1, §2

For the next test, the target named is T6, rabbit collagen type II (rabbit).
T6 construct: Prepared from rabbit eyes; also called rbCol II
The description is as above. How it is done: as §1, §2

In test [6] the target is T3, human collagen type V. In words: SPR (Biacore 3000). How it is done: (§3) The purified proteins were immobilized on a CM-5 sensor chip (GE Healthcare) using NHS/EDC after PDEA activation resulting in 110-140 RU with a Biacore 3000 system (GE Healthcare). The chip was equilibrated with SPR running buffer (PBS 0.05% Tween pH 7.3). Upon binding, target analyte was accumulated on the surface increasing the refractive index. This change in the refractive index was measured in real time and plotted as response or resonance units versus time. The analytes were applied to the chip in serial dilutions with a flow rate of 30 μl/min. The association was performed for 120 seconds and the dissociation for 120 seconds. After each run, the chip surface was regenerated with 30 μl regeneration buffer (10 mM glycine pH 2.0) and equilibrated with running buffer.
(§4) Binding studies were carried out by the use of the BIAcore 3000 (GE Healthcare); data evaluation was operated via the BIAevaluation 3.0 software, provided by the manufacturer, using the Langmuir 1:1 model (RI=0). Evaluated dissociation constants (KD) were standardized against the immobilized protein and indicated. Shown is the change in refractive index measured in real time and plotted as response or resonance unit [RU] versus time [sec].
(SPR reads the build-up and loss of mass on a sensor chip optically.)

Test [7] concerns the target T1, 67B89 (domain of fibronectin). In words: SPR (Biacore 3000). How it is done:
as §3, §4

For test [8], the target named is T7, BSA (UniProt P02769 25-607).
T7 construct: Control protein
Put plainly: SPR (Biacore 3000). The method, then:
as §3, §4

Test [9] has as its target T5, porcine collagen type II. Put plainly: ELISA (KD determination by ELISA, Example 5).
Test [10] concerns the target T2, human collagen type I. Put plainly: SPR (Biacore), response at steady state; concentration not shown. How it is done:
as §3, §4

Test [11] has as its target T4, human collagen type III. The description is as above. The method, then:
as §3, §4

Test [12] concerns the target T3, human collagen type V. The description is as above. How it is done: as §3, §4
Test [13] deals with T1, 67B89 (domain of fibronectin). The test is described as above. How it is done: as §3, §4
Test [14] has as its target T7, BSA. The test is described as above. The method, then: as §3, §4

T2 sequence (P02452 162-1218, chain 1 of 2): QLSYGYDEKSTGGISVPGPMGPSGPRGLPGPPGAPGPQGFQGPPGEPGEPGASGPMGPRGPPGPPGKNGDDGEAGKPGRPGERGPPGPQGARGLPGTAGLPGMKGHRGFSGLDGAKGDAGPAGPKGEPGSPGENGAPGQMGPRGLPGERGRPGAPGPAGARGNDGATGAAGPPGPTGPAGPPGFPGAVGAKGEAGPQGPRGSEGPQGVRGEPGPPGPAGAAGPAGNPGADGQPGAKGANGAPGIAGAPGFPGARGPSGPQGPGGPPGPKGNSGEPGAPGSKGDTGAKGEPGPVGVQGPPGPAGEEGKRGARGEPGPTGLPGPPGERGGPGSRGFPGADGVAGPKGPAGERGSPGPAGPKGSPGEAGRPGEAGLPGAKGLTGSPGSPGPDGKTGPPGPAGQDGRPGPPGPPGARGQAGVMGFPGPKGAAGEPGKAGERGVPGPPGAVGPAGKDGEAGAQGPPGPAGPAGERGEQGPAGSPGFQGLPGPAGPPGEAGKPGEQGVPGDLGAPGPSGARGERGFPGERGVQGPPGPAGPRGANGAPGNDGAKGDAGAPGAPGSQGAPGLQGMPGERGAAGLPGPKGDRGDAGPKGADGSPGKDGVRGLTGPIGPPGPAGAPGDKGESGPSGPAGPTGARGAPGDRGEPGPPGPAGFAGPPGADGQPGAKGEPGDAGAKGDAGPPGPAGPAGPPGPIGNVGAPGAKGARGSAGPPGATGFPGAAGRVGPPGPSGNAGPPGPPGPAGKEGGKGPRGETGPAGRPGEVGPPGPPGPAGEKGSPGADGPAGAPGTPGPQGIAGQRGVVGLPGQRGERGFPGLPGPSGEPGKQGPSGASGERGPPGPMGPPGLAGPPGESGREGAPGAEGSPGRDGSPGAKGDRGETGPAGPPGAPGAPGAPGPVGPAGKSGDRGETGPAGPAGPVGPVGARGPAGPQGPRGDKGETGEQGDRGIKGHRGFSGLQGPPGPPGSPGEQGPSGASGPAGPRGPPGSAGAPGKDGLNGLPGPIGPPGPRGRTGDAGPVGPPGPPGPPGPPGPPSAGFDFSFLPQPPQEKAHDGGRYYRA
T2 sequence (P08123 80-1119, chain 2 of 2): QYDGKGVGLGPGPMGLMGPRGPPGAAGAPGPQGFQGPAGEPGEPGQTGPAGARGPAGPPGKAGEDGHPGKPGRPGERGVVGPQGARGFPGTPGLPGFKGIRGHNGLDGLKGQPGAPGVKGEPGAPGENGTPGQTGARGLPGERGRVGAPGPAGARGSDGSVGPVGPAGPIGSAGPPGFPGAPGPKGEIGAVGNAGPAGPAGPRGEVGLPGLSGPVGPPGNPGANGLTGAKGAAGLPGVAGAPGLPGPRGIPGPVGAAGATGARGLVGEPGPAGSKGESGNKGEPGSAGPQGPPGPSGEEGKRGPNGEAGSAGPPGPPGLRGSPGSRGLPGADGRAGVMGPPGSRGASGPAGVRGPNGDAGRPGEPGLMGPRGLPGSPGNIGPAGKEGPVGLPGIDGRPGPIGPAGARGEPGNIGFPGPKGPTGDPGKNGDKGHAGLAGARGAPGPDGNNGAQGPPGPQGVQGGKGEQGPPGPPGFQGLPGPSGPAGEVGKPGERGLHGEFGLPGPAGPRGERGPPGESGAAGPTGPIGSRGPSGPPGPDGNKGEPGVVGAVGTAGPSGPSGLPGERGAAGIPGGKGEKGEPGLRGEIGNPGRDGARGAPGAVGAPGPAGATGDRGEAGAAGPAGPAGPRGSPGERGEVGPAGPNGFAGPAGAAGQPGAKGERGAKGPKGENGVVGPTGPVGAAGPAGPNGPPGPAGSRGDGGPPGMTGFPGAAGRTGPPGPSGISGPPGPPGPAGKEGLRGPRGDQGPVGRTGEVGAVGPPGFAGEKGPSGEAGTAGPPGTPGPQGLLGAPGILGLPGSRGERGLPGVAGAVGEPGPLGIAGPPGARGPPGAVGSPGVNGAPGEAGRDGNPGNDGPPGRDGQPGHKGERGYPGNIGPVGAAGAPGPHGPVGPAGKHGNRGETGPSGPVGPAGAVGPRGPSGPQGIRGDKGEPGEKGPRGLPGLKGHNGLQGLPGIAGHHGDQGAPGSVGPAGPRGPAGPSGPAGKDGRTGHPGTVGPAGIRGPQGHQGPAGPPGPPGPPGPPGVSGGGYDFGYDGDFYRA
T3 sequence (P20908 559-1570, chain 1 of 2): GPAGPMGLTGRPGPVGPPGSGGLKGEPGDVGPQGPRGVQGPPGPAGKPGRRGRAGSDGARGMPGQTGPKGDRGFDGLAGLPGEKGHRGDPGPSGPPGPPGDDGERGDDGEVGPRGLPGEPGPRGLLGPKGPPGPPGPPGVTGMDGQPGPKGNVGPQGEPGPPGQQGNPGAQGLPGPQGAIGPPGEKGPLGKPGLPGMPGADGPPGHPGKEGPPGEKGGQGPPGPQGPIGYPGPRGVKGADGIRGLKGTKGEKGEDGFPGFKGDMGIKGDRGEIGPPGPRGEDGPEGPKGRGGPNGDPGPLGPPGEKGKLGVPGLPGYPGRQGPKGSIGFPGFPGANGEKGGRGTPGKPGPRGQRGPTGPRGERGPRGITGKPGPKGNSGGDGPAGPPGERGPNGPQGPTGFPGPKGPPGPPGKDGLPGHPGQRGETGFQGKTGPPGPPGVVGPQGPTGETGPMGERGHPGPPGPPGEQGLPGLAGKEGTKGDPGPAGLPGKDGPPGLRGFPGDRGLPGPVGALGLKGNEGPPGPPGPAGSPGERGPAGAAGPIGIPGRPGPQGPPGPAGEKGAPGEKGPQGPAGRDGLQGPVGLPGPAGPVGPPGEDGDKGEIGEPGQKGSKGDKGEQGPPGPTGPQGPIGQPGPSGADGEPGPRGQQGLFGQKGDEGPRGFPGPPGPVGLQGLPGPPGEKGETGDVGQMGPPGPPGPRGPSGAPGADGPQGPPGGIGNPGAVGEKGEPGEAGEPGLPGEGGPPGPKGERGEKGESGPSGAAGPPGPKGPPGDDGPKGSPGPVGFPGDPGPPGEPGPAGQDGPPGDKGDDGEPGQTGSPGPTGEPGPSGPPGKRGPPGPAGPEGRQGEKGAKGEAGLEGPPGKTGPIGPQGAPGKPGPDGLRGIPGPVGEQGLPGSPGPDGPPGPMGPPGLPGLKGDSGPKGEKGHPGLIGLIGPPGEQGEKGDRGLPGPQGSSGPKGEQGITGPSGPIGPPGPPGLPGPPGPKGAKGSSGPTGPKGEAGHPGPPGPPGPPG
T3 sequence (P05997 216-1229, chain 2 of 2): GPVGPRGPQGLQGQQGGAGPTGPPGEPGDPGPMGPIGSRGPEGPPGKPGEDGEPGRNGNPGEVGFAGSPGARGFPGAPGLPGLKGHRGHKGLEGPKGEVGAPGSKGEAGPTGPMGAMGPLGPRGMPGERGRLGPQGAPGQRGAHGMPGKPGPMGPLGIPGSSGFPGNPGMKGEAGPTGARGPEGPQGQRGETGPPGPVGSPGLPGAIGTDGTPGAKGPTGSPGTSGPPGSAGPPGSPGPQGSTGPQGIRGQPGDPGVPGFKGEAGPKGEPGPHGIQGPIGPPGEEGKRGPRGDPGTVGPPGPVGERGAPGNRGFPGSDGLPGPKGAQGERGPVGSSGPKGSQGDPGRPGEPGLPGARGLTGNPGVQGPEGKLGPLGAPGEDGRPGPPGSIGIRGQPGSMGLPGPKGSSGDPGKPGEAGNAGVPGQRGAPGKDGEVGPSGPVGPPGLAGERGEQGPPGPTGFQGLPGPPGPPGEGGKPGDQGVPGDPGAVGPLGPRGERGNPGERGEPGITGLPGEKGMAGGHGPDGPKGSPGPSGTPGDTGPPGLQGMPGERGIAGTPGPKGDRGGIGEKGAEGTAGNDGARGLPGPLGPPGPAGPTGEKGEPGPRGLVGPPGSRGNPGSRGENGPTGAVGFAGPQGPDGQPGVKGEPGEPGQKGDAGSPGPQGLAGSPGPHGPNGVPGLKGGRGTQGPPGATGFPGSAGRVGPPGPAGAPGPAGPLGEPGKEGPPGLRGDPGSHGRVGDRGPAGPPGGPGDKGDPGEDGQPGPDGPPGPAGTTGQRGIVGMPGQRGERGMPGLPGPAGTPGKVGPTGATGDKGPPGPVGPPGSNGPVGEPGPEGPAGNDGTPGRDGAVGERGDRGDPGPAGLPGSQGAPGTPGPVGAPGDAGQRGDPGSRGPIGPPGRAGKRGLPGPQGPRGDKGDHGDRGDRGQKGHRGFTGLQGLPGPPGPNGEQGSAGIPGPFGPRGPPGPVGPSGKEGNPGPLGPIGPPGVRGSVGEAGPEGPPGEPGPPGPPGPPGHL
T1 sequence (P02751 1089-1540 limits assumed): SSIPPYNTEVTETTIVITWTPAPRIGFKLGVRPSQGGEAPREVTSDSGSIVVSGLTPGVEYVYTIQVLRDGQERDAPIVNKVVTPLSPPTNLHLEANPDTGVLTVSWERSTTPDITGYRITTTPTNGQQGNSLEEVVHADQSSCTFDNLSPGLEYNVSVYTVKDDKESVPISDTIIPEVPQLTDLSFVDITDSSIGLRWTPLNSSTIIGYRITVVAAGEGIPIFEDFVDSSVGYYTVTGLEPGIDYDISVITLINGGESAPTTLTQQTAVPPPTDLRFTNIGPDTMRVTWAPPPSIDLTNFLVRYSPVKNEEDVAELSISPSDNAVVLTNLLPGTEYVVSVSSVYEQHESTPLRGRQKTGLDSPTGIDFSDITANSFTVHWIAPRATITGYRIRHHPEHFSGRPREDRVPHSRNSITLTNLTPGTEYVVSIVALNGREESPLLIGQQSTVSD

B1: CID 212000 (SEQ ID NO: 39), dimer of SEQ ID NO: 2 with linker between the monomers (designed binder)
chain: IAAKFDEAQSAADSEILHLPNLTEQQRHYFRRWLSDDPSVSTHILTQAQHLNDDQAPKGGGGSGGGGSGGGGSGGGGSIAAKFDEAQSAADSEILHLPNLTEQQRHYFRRWLSDDPSVSTHILTQAQHLNDDQAPKSAWSHPQFEK
notes: not shown: C-terminal Strep-tag (detected with anti-StrepTag antibody)
One may read the Kd as the concentration at which binding is half-saturated. Read a low Kd as higher affinity. With B1, the binding result (in test [1]; with human collagen type I [2]; in the test with human collagen type V [3]; in the test with human collagen type III [4]) was “no binding (tested: about 1100 nM)” throughout. The Kd worked out at 9.11 nM with porcine collagen type II [5] and 12 nM with rabbit collagen type II.

B2: CID 212001 (SEQ ID NO: 41), tetramer of SEQ ID NO: 2 (designed binder)
chain: IAAKFDEAQSAADSEILHLPNLTEQQRHYFRRWLSDDPSVSTHILTQAQHLNDDQAPKIAAKFDEAQSAADSEILHLPNLTEQQRHYFRRWLSDDPSVSTHILTQAQHLNDDQAPKIAAKFDEAQSAADSEILHLPNLTEQQRHYFRRWLSDDPSVSTHILTQAQHLNDDQAPKIAAKFDEAQSAADSEILHLPNLTEQQRHYFRRWLSDDPSVSTHILTQAQHLNDDQAPKSAWSHPQFEK
notes: as for B1
As for B2, the binding result (in [1]; with human collagen type I [2]; in the test with human collagen type V [3]; with human collagen type III [4]) was “no binding (tested: 100 nM)” in each case. In addition, the Kd with porcine collagen type II [5] worked out at 0.27 nM; with rabbit collagen type II, 0.21 nM.

B3: CID 211999 (SEQ ID NO: 38), dimer of SEQ ID NO: 2 (directly joint monomers) (designed binder)
chain: IAAKFDEAQSAADSEILHLPNLTEQQRHYFRRWLSDDPSVSTHILTQAQHLNDDQAPKIAAKFDEAQSAADSEILHLPNLTEQQRHYFRRWLSDDPSVSTHILTQAQHLNDDQAPKSAWSHPQFEK
notes: as for B1
Turning to B3, the binding result (in [1]; with human collagen type I [2]; with human collagen type V [3]; with human collagen type III [4]) was “no binding (tested: about 1100 nM)” in each case. Further, the dissociation constant Kd worked out at 14.3 nM in the test with porcine collagen type II [5] and 21.1 nM with rabbit collagen type II.

B4: 211190 (SEQ ID NO: 1) (designed binder)
chain: NAASHDEAQLSALVEIWDLPNLTTRQKQKFIYSLQRDPSVSKEVLGEAQKLNDSQAPK
notes: also called CID211190; not shown: C-terminal Strep-tag from the expression vector
For B4, the binding result (with human collagen type V [6]; in [7]; in the test with BSA [8]) was “no binding” each time.

B5: 211519 (SEQ ID NO: 37), homodimer of SEQ ID NO: 11 (designed binder)
chain: IAAKFDEAQQAAFYEILHLPNLTEQQRNYFIQWLRDDPSVSPTVLGTAQQLNDSQAPKIAAKFDEAQQAAFYEILHLPNLTEQQRNYFIQWLRDDPSVSPTVLGTAQQLNDSQAPK
notes: also called CID 211519; not shown: C-terminal Strep-tag from the expression vector
For the molecule B5, in the test with porcine collagen type II [9], the equilibrium dissociation constant (Kd) came out at 700 nM. In addition, the binding result (in the test with human collagen type I [10]; with human collagen type III [11]; in the test with human collagen type V [12]; in test [13]; in the test with BSA [14]) was “no binding” each time.
